Key:
IL-1α [1] = experiment: EpiDerm skin irritation, IL-1α secretion (Quantikine ELISA); type: cell-based, human; conditions: EpiDerm cultures, media collected after 24 hours; rhACE-2 2.5-40 μg/ml
[2] = test system: human reconstructed nasal epithelium model (NAS-100-BETA by MatTek); experiment: Nasal irritation, MTT tissue viability; type: cell-based
Procedure: (§1) The formulations were performed using an increased dosage (e.g., 40-50 μg) compared to the study in Example 3.
(§2) Cultures were maintained and treated topically and at the end of the treatment, tissue viability was determined using the MTT conversion assay as described in Example 3. The Relative Tissue Viability values were determined and used to classify the test articles as irritant or non-irritants according to the assay criteria. As a secondary output, levels of the proinflammatory mediator IL-1α were determined as described in Example 3.

[3] = test system: EpiDerm™ cultures (EPI-200); experiment: In Vitro EpiDerm Skin Irritation Test (EPI-200-SIT), MTT tissue viability; type: cell-based, human
[4] = test system: human nasal epithelial cultures (EpiAirway, NAS-100-beta); experiment: Nasal permeation of rhACE-2 (ELISA of receiving medium); type: in vitro ADME; conditions: for nasal permeation value (rhACE-2 in receiving medium): 50 μg/ml rhACE-2 in formulation
Text: In order to determine the nasal permeation profile, human nasal epithelial cultures (EpiAirway, NAS-100-beta manufactured by MatTek Corporation) were used.
At the end of each time point, culture medium was completely removed and replaced with fresh medium.

[5] = test system: reconstructed human skin model (Epiderm, EPI-200-X); experiment: Skin permeation of rhACE-2 (ACE-2 ELISA of receiving medium); type: in vitro ADME; conditions: for skin permeation value (rhACE-2 in receiving medium): 50 μg/ml rhACE-2 in formulation
Procedure: In order to determine the skin permeation profile, a reconstructed human skin model (Epiderm, EPI-200-X manufactured by MatTek Corporation) was used. This model includes normal, human-derived epidermal keratinocytes (NHEK) which have been cultured to form a multilayered, highly differentiated model of the human epidermis. The NHEK cells are cultured on specially-prepared cell culture inserts using serum free medium and attain levels of differentiation. The EpiDerm Skin Model closely parallels human skin, thus providing a useful in vitro means to assess dermal irritancy and toxicology.
After an acclimation period, the skin cultures were treated in triplicates PBS (negative control/baseline), vehicle formulation (“Placebo”), and formulation containing 50 μg/ml ACE-2. At the end of each time point culture medium was completely removed and replaced with fresh medium. The amount of permeated ACE-2 over time was determined by ACE-2 ELISA. Levels of ACE-2 in the receiving medium were determined at the following timepoints: 0 minutes, 5 minutes, 30 minutes, 60 minutes, 180 minutes, 540 minutes, 1260 minutes, and 1440 minutes.

IL-1α [6] = experiment: Nasal irritation, IL-1α levels; type: cell-based, human
Procedure: as §1, §2

[7] = Visual solubility assessment of ACE-2 protein in liquid excipients; type: physicochemical; conditions: for Visual observation for solubility: 1.6 μg API in 3.0 g
Procedure: The solubility of compounds in liquid excipients was determined using visual solubility protocol. In this method, about 3.0 g of excipients was accurately weighed in individually labelled 20 mL scintillation vials (USP Type-I). To these vials, accurately measured 1 (1.67 μg) aliquots of protein was added and tightly closed. […] The vials were kept at ambient temperature without agitation for 72 hours and visually inspected at 0, 24, and 72 hours.

[8] = test system: hCoV-19/South Africa/KRISP-K005325/2020 (SA); type: cell-based, SARS-CoV-2
[9] = test system: hCoV-19/USA-WA1/2020 (WA); type: cell-based, SARS-CoV-2; conditions: in µg/mL

## CCCCCCCCCCCCOS(=O)(=O)[O-].[Na+] [5% SDS]
IL-1α [1]
  secretion of IL-1α: significant increase in IL-1α secretion
[2]; nasal epithelium model
  mean viability of positive control tissues expressed as percentage of the negative control tissues: 2%
[3]
  mean viability of positive control tissues expressed as percentage of the negative control tissues: 4%

## rhACE-2
[4]; 5 minutes post application
  nasal permeation value (rhACE-2 in receiving medium): 0.035 ng/ml
[4]; 180 minutes post application
  nasal permeation value (rhACE-2 in receiving medium): 0.06 ng/ml
[4]; 540 minutes post application
  nasal permeation value (rhACE-2 in receiving medium): 0.413 ng/ml
[4]; 1260 minutes post application
  nasal permeation value (rhACE-2 in receiving medium): 1.03 ng/ml
[4]; 1440 minutes post application
  nasal permeation value (rhACE-2 in receiving medium): 0.249 ng/ml
[4]; at 50 μg/ml
  permeation through reconstructed human nasal tissue: minimal to negligible permeation
[5]; 5 minutes post application
  skin permeation value (rhACE-2 in receiving medium): 0.402 ng/ml
[5]; 30 minutes post application
  skin permeation value (rhACE-2 in receiving medium): 0.578 ng/ml
[5]; 60 minutes post application
  skin permeation value (rhACE-2 in receiving medium): 1.28 ng/ml
[5]; 180 minutes post application
  skin permeation value (rhACE-2 in receiving medium): 0.0196 ng/ml
[5]; 540 minutes post application
  skin permeation value (rhACE-2 in receiving medium): 0 ng/ml
[5]; 1260 minutes post application
  skin permeation value (rhACE-2 in receiving medium): 0.98 ng/ml
[5]; 1440 minutes post application
  skin permeation value (rhACE-2 in receiving medium): 0.029 ng/ml
[5]; at 50 μg/ml
  permeation through reconstructed human skin tissue: minimal to negligible permeation
IL-1α [6]; rhACE-2 3.06 μg/ml
  average IL-1α levels: 0 ng/mL
IL-1α [6]; rhACE-2 6.125 μg/ml
  average IL-1α levels: 0 ng/mL
[2]; all tested concentrations, 3.06-50 μg/ml
  classification as nasal irritant: nasal non-irritants
[7]; in 1X PBS, 24 hr
  Visual observation for solubility: Clear solution
[7]; in 1X PBS, 72 hr
  Visual observation for solubility: Clear solution
[7]; in 1X PBS, Initial Observation
  Visual observation for solubility: Clear solution
[7]; in Glycerin, 24 hr
  Visual observation for solubility: Clear solution
[7]; in Glycerin, 72 hr
  Visual observation for solubility: Clear solution
[7]; in Glycerin, Initial Observation
  Visual observation for solubility: Clear solution
[7]; in Hexylene Glycol, 24 hr
  Visual observation for solubility: Clear solution
[7]; in Hexylene Glycol, 72 hr
  Visual observation for solubility: Clear solution
[7]; in Hexylene Glycol, Initial Observation
  Visual observation for solubility: Clear solution
[7]; in Polyethylene Glycol 400, 24 hr
  Visual observation for solubility: Clear solution
[7]; in Polyethylene Glycol 400, 72 hr
  Visual observation for solubility: Clear solution
[7]; in Polyethylene Glycol 400, Initial Observation
  Visual observation for solubility: Clear solution
[7]; in Polysorbate 20, 24 hr
  Visual observation for solubility: Clear yellow
[7]; in Polysorbate 20, 72 hr
  Visual observation for solubility: Clear yellow
[7]; in Polysorbate 20, Initial Observation
  Visual observation for solubility: Clear yellow
[7]; in Propylene Glycol, 24 hr
  Visual observation for solubility: Clear solution
[7]; in Propylene Glycol, 72 hr
  Visual observation for solubility: Clear solution
[7]; in Propylene Glycol, Initial Observation
  Visual observation for solubility: Clear solution
[7]; in Purified Water, USP, 24 hr
  Visual observation for solubility: Clear solution
[7]; in Purified Water, USP, 72 hr
  Visual observation for solubility: Clear solution
[7]; in Purified Water, USP, Initial Observation
  Visual observation for solubility: Clear solution
[7]; propylene glycol, hexylene glycol, glycerin, polyethylene glycol 400, polysorbate 20, purified water, PBS
  solubility in all the excipients tested: readily soluble

## ACE2
[8]
  EC50: 1.18 µg/mL
[9]
  EC50: 9.206

From patent US11986516B2, “Compositions and methods for treatment of SARS-COV-2” (priority 2021, dated 2024)
